Laboratory results published in PMC3102090, “Interaction between Amyloid Beta Peptide and an Aggregation Blocker Peptide Mimicking Islet Amyloid Polypeptide” (PLoS ONE, 2011).
Square brackets hold non-standard residues; d marks the D form. Ends that are not written are not given here. fluorescein = fluorescein (N-terminal label); NMeI = CC[C@H](C)[C@H](NC)C(=O)O; Sar = CNCC(=O)O

Experiments:
Aβ and α-synuclein = details: ref [41]; cited from earlier work
From the text: In agreement with their intrinsic aggregation propensities, the agg ...

[1] = target: IAPP-GI (Fluos-IAPP-GI) (Homo sapiens) (UniProt P10997); assay: fluorescence titration; details: cited from earlier work
[2] = CLEANEX-PM-FHSQC water-amide proton exchange; type: physicochemical; details: 30 µM Aβ42, no IAPP-GI, pH 7.3, 278 K
Description: In a CLEANEX-PM-FHSQC experiment, exposed parts of the backbone gain high signal intensity already at short mixing times due to efficient exchange with water, while for more protected groups the signal intensity only rises at longer mixing times.
To this end, CLEANEX-PM-FHSQC experiments were recorded on a Bruker Avance 600 MHz spectrometer equipped with a triple-resonance room temperature probe. […] The intensity of peaks as a function of mixing time was fitted to the following equation: [drawing 1] (1) where V0 is the intensity of the peak in a control FHSQC experiment, k is the normalized rate constant related to the forward exchange rate constant between water and NH protons, and R1A and R1B are apparent longitudinal relaxation rates for protein and water [32].

[3] = Side chain 1H-15N HSQC of histidines of Aβ42; type: physicochemical; details: 30 µM Aβ42, no IAPP-GI, pH 7.3, 278 K
Description: ^1H-^15N HSQC spectra of the side chains of histidines (H6, H13 and H14) were acquired on a Bruker AMX 600 MHz spectrometer equipped with a triple-resonance cryogenic probe. […] A 30 µM sample of Aβ42 was also measured. The INEPT transfer delay was selected as 27.8 ms, to obtain the coherence transfer from the ε1H and δ2H protons to the ε2N and δ1N through the ^2J coupling constant (Figure 1B). The carrier and SWH values were 5.00 ppm and 6010 Hz in the direct dimension, and 185.31 ppm and 9728 Hz in the indirect dimension. The experimental matrix was 2K*256 complex data points, which after apodization through a 90°-shifted squared sine bell function in both dimensions was transformed to a final matrix of 8K*512 data points.

Aβ40 = Aβ40 (Homo sapiens, UniProt P05067); details: Fluos-IAPP-GI (1 nM) titrated with low nano- to submicromolar Aβ40; fluorescence; ref [18]; read-out: app. Kd, IAPP-GI-Aβ40 interaction; cited from earlier work
IAPP = details: ref [38]; cited from earlier work
[4] = cited from earlier work
From the text: Therefore, we needed to find an experimental condition under which these two peptides predominantly populate a monomeric state.

Chain of Aβ40 (P05067 672-711 limits assumed): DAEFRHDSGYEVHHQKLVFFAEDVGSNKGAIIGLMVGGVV
Chain of Amyloid beta 40 1-40 (P05067 1-40): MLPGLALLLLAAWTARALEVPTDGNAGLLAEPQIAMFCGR
Chain of IAPP-GI (Fluos-IAPP-GI) (Homo sapiens) (P10997 32-73): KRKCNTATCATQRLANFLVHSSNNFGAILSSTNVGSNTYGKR

For O=C(O[C@@H]1Cc2c(O)cc(O)cc2O[C@@H]1c1cc(O)c(O)c(O)c1)c1cc(O)c(O)c(O)c1 [(-)-epigallocatechin gallate], the “redirection of Aβ and α-synuclein into off-pathway oligomers” value (Aβ and α-synuclein) is given as “redirection of Aβ and α-synuclein into off-pathway oligomers”.
In the case of “Amyloid beta 40 1-40 (from UniProt P05067)”, the Kd [1] is listed as 41.2 nM.
In the case of “Aβ42: amyloid-beta peptide; 15N-uniformly labeled Aβ1-42 purchased from rPeptide”, the “water-amide proton exchange rates of Aβ42 compared with Aβ40” value [2] is reported as “the exchange rates are reduced in regions (Figure 9) that are also affected upon addition of IAPP-GI to Aβ40” and the “histidine side-chain peak pattern of pure Aβ42” value [3] is reported as “very similar to that of Aβ40 with IAPP-GI”.
In the case of “Fluos-IAPP-GI: N-terminal fluorescein labeled IAPP-GI (fluorescein-KCNTATCATQRLANFLVHSSNNF[Sar]A[NMeI]LSSTNVGSNTY; ends and bridges not checked)”, the Kd (Aβ40) is listed as 50 nM.
In the case of “N-terminal part (residues 1–28): N-terminal part of Aβ (residues 1–28)”, the “affinity of N-terminal part of Aβ for IAPP” value (IAPP) is given as “low µM affinity”.
For “human IAPP: Islet Amyloid Polypeptide, hydrophobic strongly amyloidogenic peptide produced in the pancreatic islet cells (KCNTATCATQRLANFLVHSSNNFGAILSSTNVGSNTY; not fully specified (C-terminus, bridges); cysteine pairing not given here; UniProt P10997 34-70, looked up)”, the “assembly state of human IAPP” value ([4]; neutral pH, 4°C, concentration as high as 255 µM (1 mg/mL), analytical ultracentrifugation and diffusion NMR, ref [24], [25]) is listed as “kinetically stable state consisting of monomers and high molecular weight oligomers” and the “self-association of human IAPP” value ([4]; temperatures above 20°C, ref [24]-[27]) is listed as “rapidly drives monomeric IAPP molecules toward oligo- and multimerization”.
